Experiment [1] has as its target GFP-tagged Sec23 (UniProt Q15436). The experiment is described as follows: co-immunoprecipitation (anti-GFP beads) and western blotting, mean of three experiments. The conditions noted are these: HEK293 cells co-transfected; parent: est. 1.0; read off a plot. (Immunoblotting shows a protein as a band on a membrane.)
The target of experiment [2] is GFP-Sec13 (UniProt P55735). In words: co-immunoprecipitation and western blotting. The conditions noted are these: parent: 0.8.
Sequence of GFP-Sec13 (P55735 whole entry): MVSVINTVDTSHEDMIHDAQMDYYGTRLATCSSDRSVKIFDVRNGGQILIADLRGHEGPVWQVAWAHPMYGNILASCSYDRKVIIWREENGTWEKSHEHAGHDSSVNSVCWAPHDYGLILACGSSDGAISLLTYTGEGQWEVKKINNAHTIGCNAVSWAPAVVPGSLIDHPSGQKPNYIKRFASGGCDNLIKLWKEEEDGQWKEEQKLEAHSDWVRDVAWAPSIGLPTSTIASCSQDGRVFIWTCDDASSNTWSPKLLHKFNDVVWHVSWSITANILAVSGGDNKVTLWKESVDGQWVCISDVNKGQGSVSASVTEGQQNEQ
The target in experiment [3] is GFP-tagged Sec23 (UniProt Q15436). In words: co-immunoprecipitation (anti-GFP beads) and western blotting, single blot quantified. The conditions noted are these: HEK293 cells co-transfected; parent: 1.
Sequence of GFP-tagged Sec23 (Q15436 whole entry): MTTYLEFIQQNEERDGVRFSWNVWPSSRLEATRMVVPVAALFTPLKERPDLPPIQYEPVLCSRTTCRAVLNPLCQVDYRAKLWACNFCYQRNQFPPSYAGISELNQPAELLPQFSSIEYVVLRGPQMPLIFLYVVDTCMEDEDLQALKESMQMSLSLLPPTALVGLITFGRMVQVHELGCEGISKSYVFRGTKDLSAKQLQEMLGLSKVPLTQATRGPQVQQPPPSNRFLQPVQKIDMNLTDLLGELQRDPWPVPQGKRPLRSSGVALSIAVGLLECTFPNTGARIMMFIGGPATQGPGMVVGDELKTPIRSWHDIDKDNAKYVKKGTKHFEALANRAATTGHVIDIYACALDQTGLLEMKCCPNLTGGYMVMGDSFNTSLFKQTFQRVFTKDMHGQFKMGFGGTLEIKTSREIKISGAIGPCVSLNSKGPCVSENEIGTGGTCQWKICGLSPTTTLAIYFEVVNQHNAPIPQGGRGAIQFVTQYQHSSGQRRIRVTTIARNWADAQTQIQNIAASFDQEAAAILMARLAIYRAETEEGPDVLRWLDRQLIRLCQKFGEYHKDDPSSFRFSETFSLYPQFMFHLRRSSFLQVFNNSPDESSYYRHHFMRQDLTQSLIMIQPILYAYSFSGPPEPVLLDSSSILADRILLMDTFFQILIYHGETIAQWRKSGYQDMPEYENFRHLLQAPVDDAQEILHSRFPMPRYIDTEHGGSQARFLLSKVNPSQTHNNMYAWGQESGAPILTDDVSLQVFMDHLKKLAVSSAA
For experiment [4], the target named is Sec23 (UniProt Q15436). In words: anti-GFP co-IP, anti-FLAG blot. The following applies: reference: wild type; sites S527,S799.

Sequence of FLAG-tagged wild type (WT) Sec31 (from UniProt O94979) S527A; S799A; T1163A; T1165A (O94979 whole entry, stated change not applied): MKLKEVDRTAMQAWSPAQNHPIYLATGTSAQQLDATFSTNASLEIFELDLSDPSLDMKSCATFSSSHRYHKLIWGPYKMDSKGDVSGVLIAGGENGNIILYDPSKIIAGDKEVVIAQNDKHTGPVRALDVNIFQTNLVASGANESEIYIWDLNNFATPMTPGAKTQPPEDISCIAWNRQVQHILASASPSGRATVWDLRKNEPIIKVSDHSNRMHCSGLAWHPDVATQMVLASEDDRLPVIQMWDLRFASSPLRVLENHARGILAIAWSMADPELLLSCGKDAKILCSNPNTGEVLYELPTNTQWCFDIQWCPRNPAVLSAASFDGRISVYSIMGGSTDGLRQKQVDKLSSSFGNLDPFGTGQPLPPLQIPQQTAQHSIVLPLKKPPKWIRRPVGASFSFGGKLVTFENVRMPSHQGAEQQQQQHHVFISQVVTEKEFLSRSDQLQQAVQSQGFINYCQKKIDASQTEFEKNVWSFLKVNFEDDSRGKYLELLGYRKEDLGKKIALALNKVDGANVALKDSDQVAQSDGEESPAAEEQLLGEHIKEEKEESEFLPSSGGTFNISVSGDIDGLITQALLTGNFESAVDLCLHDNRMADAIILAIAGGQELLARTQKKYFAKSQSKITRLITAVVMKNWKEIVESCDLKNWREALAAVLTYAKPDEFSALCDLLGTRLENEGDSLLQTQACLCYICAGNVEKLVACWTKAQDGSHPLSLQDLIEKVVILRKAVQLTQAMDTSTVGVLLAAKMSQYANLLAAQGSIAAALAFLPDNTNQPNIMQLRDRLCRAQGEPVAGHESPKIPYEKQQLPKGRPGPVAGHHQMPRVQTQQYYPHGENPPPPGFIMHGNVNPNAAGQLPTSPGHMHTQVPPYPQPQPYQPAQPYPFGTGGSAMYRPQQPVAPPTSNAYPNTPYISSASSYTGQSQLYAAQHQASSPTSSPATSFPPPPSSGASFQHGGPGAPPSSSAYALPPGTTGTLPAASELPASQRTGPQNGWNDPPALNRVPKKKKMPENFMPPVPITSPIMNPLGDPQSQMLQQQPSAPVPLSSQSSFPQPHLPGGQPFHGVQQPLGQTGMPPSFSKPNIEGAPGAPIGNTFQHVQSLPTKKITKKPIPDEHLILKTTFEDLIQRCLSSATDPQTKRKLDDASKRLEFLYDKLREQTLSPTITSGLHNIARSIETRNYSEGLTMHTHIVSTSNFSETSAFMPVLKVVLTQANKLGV
Sequence of FLAG-tagged wild type (WT) Sec31 (from UniProt O94979) W985A (O94979 whole entry, stated change not applied): as above
Sequence of FLAG-tagged wild type (WT) Sec31 (from UniProt O94979) T1163A (O94979 whole entry, stated change not applied): as above

On to “FLAG-tagged wild type (WT) Sec31 (from UniProt O94979) S527A; S799A; T1163A; T1165A”, for which the ratio to parent in experiment [1] was determined as 3.1; in experiment [3], 3.2. Also, the other: normalized ratio of co-IP'ed Sec31 in experiment [2] is 1.4.

Consider “FLAG-tagged wild type (WT) Sec31 (from UniProt O94979) T1163A”, for which the other: normalized ratio of co-IP'ed Sec31 in experiment [2] amounted to 1.1.

Regarding “FLAG-tagged wild type (WT) Sec31 (from UniProt O94979) W985A”, the ratio to parent was found to be 0.33 in experiment [1] and 0.3 in experiment [3].

Regarding Sec31 (from UniProt O94979) S527A/S799A, the fold change result in experiment [4] is given as “stronger”.

For the origin of these results see PMC3548793.
